B1: (beta-Asp10) abaloparatide ([b-Asp10, Glu22,25, Leu23,28,31, Aib29, Lys26,30]hPTHrP(1-34)NH2) (peptide)
peptide: AVSEHQLLHXKGKSIQDLRRRELLEKLLXKLHTA
modifications: beta-Asp at position 10; Aib (2-aminoisobutyric acid) at position 29; C-terminal amide (NH2)

Molecular target: PTH receptors
Experiment: cell-based or functional assay

Binder | EC50, production of cAMP in a cell base potency assay for functional PTH activity
B1 | 3.3 ng/mL
AVSEHQLLHDKGKSIQDLRRRELLEKLLXKLHTA (Aib (2-aminoisobutyric acid) at position 29; C-terminal amide (NH2)) [abaloparatide ([Glu22,25, Leu23,28,31, Aib29, Lys26,30]hPTHrP(1-34)NH2)] | 0.325 ng/mL

Source: US11835506 (RADIUS HEALTH, dated 2023)
